The target of experiment [1] is SARS-CoV-2 Spike Glycoprotein S1 (subunit 1) (SARS-CoV-2) (UniProt P0DTC2). As to the kind of experiment: epitope binning; competitor 2-6.
The target is the same in experiment [2]. As to the kind of experiment: epitope binning; competitor 2-5.
Experiment [3] has the same target. The experiment is described as follows: epitope binning; competitor 2-2.
Experiment [4] has the same target. As to the kind of experiment: epitope binning; competitor Acro mAb.
The target is the same in experiment [5]. As to the kind of experiment: epitope binning; competitor 2-11.
For experiment [6] the target is unchanged. As to the kind of experiment: epitope binning; competitor Abcam CR3022.
The target is the same in experiment [7]. The experiment is described as follows: epitope binning; competitor 1-16.
Experiment [8] has the same target. As to the kind of experiment: epitope binning; competitor 1-32.
The target is the same in experiment [9]. As to the kind of experiment: epitope binning; competitor 2-8.
Experiment [10] shares this target. The experiment is described as follows: epitope binning; competitor 1-35.

Turning to Abcam CR3022 (antibody), the epitope binning score in [1] turned out to be 2; in experiment [2] it was 0; in experiment [3], 0; in experiment [4] it was 2; in experiment [5], 1; in [6], 0. In addition, the epitope binning score in [7] amounted to 2; in experiment [8], 1; in experiment [9], 0; in experiment [10] it was 2.

(Values after patent US20210395344A1.)
